These results are taken from the RNAGym collection of RNA variant scans (doi:10.7554/elife.80360).

B1: HDV Ribozyme (parent)
chain: GGCCGGCAUGGUCCCAGCCUCCUCGCUGGCGCCGGCUGGGCAACAUUCCGAGGGGACCGUCCCCUCGGUAAUGGCGAAUGGGACCCA

In the data set the parent is B1. As to the kind of experiment: self-cleavage, relative activity (ratio to wild type); higher = more cleavage; co-transcriptional.
Regarding C58U G67A, the self-cleavage was 0.909.
In the case of A71C A83U, the self-cleavage was found to be 0.297.
Take A8U C21U: the self-cleavage was found to be 0.147.
Consider C44U G82C, for which the self-cleavage worked out at 0.0723.
Consider U23A G29U, for which the self-cleavage was determined as 0.
The figure for G6U U46A is 0.0755.
The figure for C13U G40A is 0.365; for U20A A43G it is 0.0573.
With G50U G67C, the self-cleavage worked out at 0.617.
With G1U G59C the figure was 0.277; with G2C G38A, 0.0747; with C24G A71C, 0.
Consider A78C C84A, for which the self-cleavage was determined as 0.156.
As to C4G C57G, the self-cleavage turned out to be 0.489.
With G10U U23C the figure was 0.62; with C36G U46A, 0.415.
With G17C U37C the figure was 0.344; with U23G C49A, 0.831; with C19A A51G, 0.0712.
Regarding G54C A83G, the self-cleavage was 0.905.
The figure for C21A C24G is 0; for C62U C86G it is 0.831.
With U27G G35C the figure was 0.0594; with G29U G34A, 0.111.
With C58U U72A the figure was 0.58; with G2C C66G, 0.0978.
In the case of C33U U47C, the self-cleavage is 0.682.
C63U G82U: the self-cleavage is 0.509.
With C3U U12G the figure was 0.429; with C3U U12A, 0.0817.
Take U27C C62U: the self-cleavage amounted to 0.851.
For G80A A83G, the self-cleavage worked out at 0.396.
The figure for C44G A83C is 0.284.
The figure for G35U C75U is 0.095.
As for G29C A77C, the self-cleavage worked out at 0.0639.
With G11C C58A the figure was 0.378.
On to G6C G50A, for which the self-cleavage worked out at 0.225.
As to A45C U72C, the self-cleavage worked out at 0.481.
With G38C A45G, the self-cleavage was 0.227.
As to U20C C86G, the self-cleavage was 0.208.
With G10A G31U the figure was 0.226; with G5A G76C, 0.0959; with U23G A78C, 0.106.
On to A56U C64A, for which the self-cleavage is 0.899.
The figure for G1C G2A is 0.138; for U20A C63U it is 0.101; for G68U A70C it is 0.582.
The figure for G35C U69G is 0.277.
With G25A A78U the figure was 0.0346; with G31A G80A, 0.103.
Regarding C3G U27C, the self-cleavage came to 0.133.
The figure for C48G C75U is 0.285.
With C36U G40U the figure was 0.602; with A45U G53U, 0.997.
As for C4U U65G, the self-cleavage came to 0.656.
With C7G C66A, the self-cleavage worked out at 0.161.
The figure for G11C C19A is 0.0314; for C36U G52C it is 0.779.
With G6A C32G the figure was 0.138.
In the case of C33G G76C, the self-cleavage was 0.229.
With C62U U79G the figure was 0.831.
The figure for C22G G68U is 0.0583; for G1A C57G it is 0; for C4U C49U it is 0.789.
The figure for G10A G80A is 0.11; for U60A A71C it is 0.73.
For the variant U23A A70G, the self-cleavage worked out at 0.931.
With C63A U72A the figure was 0.542; with U12A G81U, 0.122.
The figure for U9A C33U is 0.808; for C32G G40C it is 0.0755.
The figure for U9C G39C is 0.287.
With U23C C64A, the self-cleavage was 0.743.
With C26U C86A, the self-cleavage stood at 0.99.
With C36U G53U the figure was 0.852; with U23A C24G, 0.113.
For C24A C58G, the self-cleavage came to 0.855.
With U47G U60C the figure was 0.767; with C24G C66G, 0.13; with C44U G74A, 0.427.
The figure for C26U G59U is 0.881.
The figure for G74U G80A is 0.0845; for U9A A71G it is 0.506; for G10U G38C it is 0.058.
As for G35U U69C, the self-cleavage worked out at 0.253.
Consider C7G A78G, for which the self-cleavage was determined as 0.0831.
With C61G U69G the figure was 0.831; with U9A C58A, 0.789; with C44U G50C, 0.437.
The figure for C3A U46G is 0.026; for G52A C61U it is 0.879; for C32G G81A it is 0.0297.
With G11A U37G the figure was 0.142.
With U12C C64A, the self-cleavage is 0.344.
The figure for C24U G28U is 0.119.
With U23C G82A the figure was 0.314; with U20A U60C, 0.
With U20A U60G the figure was 0.128.
As to G40A G55A, the self-cleavage came to 0.882.
The figure for C49U A71C is 0.641; for U46A C57U it is 0.657.
The figure for C15G G52U is 0.684.
For U12C U65C, the self-cleavage is 0.492.
With G67A G68U the figure was 0.79.
With C57U G67A the figure was 0.906; with C32U C33A, 0.161; with C44A G52U, 0.913.
With G39A G82A the figure was 0.136.
C85U C86U: the self-cleavage stood at 0.895.
Consider A8C G74C, for which the self-cleavage was found to be 0.269.
With U37C G59C the figure was 1.16; with C18U U79C, 0.168.
With U37G A83G, the self-cleavage turned out to be 0.138.
With C32A G67C the figure was 0.154.
Take C44U A70C: the self-cleavage is 0.831.
On to G11C C44U, for which the self-cleavage worked out at 0.0437.
The figure for G10U A43U is 0.284; for C75U A87C it is 0.161.
The figure for A16G A42G is 0.504; for G34U A87G it is 0.122.
The figure for C7A G17U is 0.162; for C24G G67A it is 0.119; for C49A C75U it is 0.175.
As to G5C C19A, the self-cleavage was 0.
For C22A A87U, the self-cleavage was 0.24.
For the variant C21A C26G, the self-cleavage is 0.266.
As to G53U U72C, the self-cleavage turned out to be 0.563.
With C22G C85U the figure was 0.0845; with G39A U47G, 0.185.
The figure for U20C U27C is 0; for U27A U60C it is 1.21; for U12A C48A it is 0.244.
With U20C G52C the figure was 0.244.
Consider C15G A51C, for which the self-cleavage stood at 0.623.
The figure for U20A C57U is 0.0707.
With G2C G10A the figure was 0.145.
The figure for U69G A83U is 0.465; for C14G C57A it is 0.748; for U27A G29C it is 0.158.
As to A8C G76A, the self-cleavage came to 0.95.
C22A G34A: the self-cleavage was 0.0573.
Take G6A G74U: the self-cleavage turned out to be 0.104.
With C63G G76A the figure was 0.974; with C26U G29C, 0.0959; with G68A G76A, 1.
Take C75U U79A: the self-cleavage is 0.151.
The figure for C44A A83C is 0.269.
The figure for C24G U72G is 0.
As to C3U G40A, the self-cleavage amounted to 0.857.
Turning to C3U G40U, the self-cleavage amounted to 0.594.
With G5A A78U the figure was 0.101; with C21G C49U, 0; with C19A U60C, 0.107.
The figure for G50U C66A is 0.901; for A70U C86A it is 1.02.
The figure for C15G G38C is 0.0639.
For G25U A45G, the self-cleavage was determined as 0.401.
The figure for C22A G31U is 0.0594.
The figure for G80U is 0.223; for A8G C84U it is 0.864; for U20C U23C it is 0.0723.
With C32A A51C the figure was 0.244; with G50C G68A, 0.563.
Consider C7U G68C, for which the self-cleavage is 0.704.
The figure for G53C G73A is 0.782; for U12A C41A it is 0.437; for U20G A87G it is 0.282.
